Reference: patent US6420524

Key:
Experiment in all cases: cell_activity
[1] = test system: TnsA+TnsB+TnsC A225V TnsC A225V (Escherichia coli (Tn7)?)
[2] = test system: TnsA+TnsB+TnsC S401YΔ402 TnsC S401Y, Δ402 (Escherichia coli (Tn7)?); conditions: lambda hop; inhibited somewhat by TnsD
[3] = target: TnsA+TnsB+TnsC+TnsD (Escherichia coli (Tn7)?) (UniProt P13988+P13989+P05846+A0A0H2XLP6); conditions: lambda hop
[4] = test system: TnsA+TnsB+TnsC+TnsE (Escherichia coli (Tn7)?); conditions: lambda hop
[5] = target: TnsA+TnsB+TnsC (wild type) (Escherichia coli (Tn7)?) (UniProt P13988+P13989+P05846); conditions: mating-out assay
[6] = test system: TnsA+TnsB+TnsC+TnsD+TnsE (Escherichia coli (Tn7)?); conditions: mating-out assay; +/- 1.1e-4

“E. coli chromosome target (miniTn7-KmR from lambda KK1)” was tested, and the relative transposition activity (fold vs TnsABCwt+E) ([1]; lambda hop, stimulated 500-fold by TnsD+attTn7) was 8, the relative transposition activity (fold vs TnsABCwt+E) [2] was 50 and the activity (KmR colonies/pfu) [3] was 0.00018. The activity (KmR colonies/pfu) [4] was 2.2e-07.

pOX-G conjugable target plasmid was tested, and the activity (transposition frequency) ([1]; mating-out assay, +/- 8.1e-6) was 8.8e-06, the activity (transposition frequency) [5] was under 1e-07 and the activity (transposition frequency) [6] was 0.00055.
